The record followed here is the supplement of paper PMC12042874.

The data set in a line: amyloid nucleation score (Sup35N fusion, yeast selection) (log enrichment); library NNK1; higher = more nucleation; inactive = no reads after selection. In a few lines: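 The nucleation score is a DiMSum log enrichment of output over input reads, centred on the mode score of non-aggregating sequences. Sequences under 100 input reads were excluded, and reads came from Illumina sequencing of plasmid inserts. Psi-negative yeast expressing Sup35N fused to peptides of 20 random codons were induced with 100 μM copper sulfate for 24 hours and grown 7 days at 30°C on medium lacking adenine and uracil. Random libraries had three technical output replicates.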

± gives the uncertainty stated by the source.

In the case of LSKKFWRFVWARLSEELIER, the amyloid nucleation score was determined as 0.811 ± 0.51.
With HNYSDFFNESWHNGLIYSY, the amyloid nucleation score was -0.571 ± 1.
As to RSRAISIKWCIGVGHPGNWV, the amyloid nucleation score result was “inactive”.
As for ALIYPILILYGV, the amyloid nucleation score is 1.52 ± 0.85.
As for CGDMKRSHGCYFGPRNRFCW, the amyloid nucleation score came to 0.517 ± 0.47.
Substance CFSMILVYYVLFARFVSWSM had an amyloid nucleation score of 0.15 ± 0.41.
In the case of TSWRAWVGAVKRSAFFYTYY, the amyloid nucleation score was 0.444 ± 1.4.
In the case of SVYVLSRGAVSMSVWHR, the amyloid nucleation score was found to be 3.64 ± 0.15.
Turning to LWNGIFELAYLTGVYEFRYG, the amyloid nucleation score stood at 2.07 ± 0.26.
With VPSFITYLVVDLWDALQGYH, the amyloid nucleation score amounted to 0.409 ± 0.42.
The same measure for EWVGQFEYEGTTLWVYLVTL: -0.419 ± 0.27; for IPWPRTPSSSGMHAL: 4.81 ± 0.074; for DHFKG: -0.044 ± 0.84.
The result for YSVVRCRVANC reads 0.263 ± 0.61; that for SSTLLRMIEVRNGWEKGVWE, 0.083 ± 0.2; that for IRSLKNPF, 0.275 ± 1.2.
In turn, LEMVINSFRELSLAY yielded an amyloid nucleation score of -0.212 ± 0.46.
TRGVGYFIREIFGS returned an amyloid nucleation score of 0.241 ± 1.4.
In the case of FRSTPWNPMSTELVIFSPSV, the amyloid nucleation score is 1.16 ± 0.43.
Consider LDIDTKW, for which the amyloid nucleation score was -0.204 ± 0.38.
As to HASWVRAITWVHQAGTYVML, the amyloid nucleation score is -0.693 ± 1.3.
Take VMKDTQLLCNFRVSRVLMFE: the amyloid nucleation score entry is “inactive”.
In turn, TFLMCRNACYK had an amyloid nucleation score of 4.35 ± 0.15.
The same measure for RSEGRRGRFNMWSLAFGDVP: -0.218 ± 0.3; for MSKKMQRPRVAAVGFERFGT: -0.174 ± 0.9.
YKYFCGYKLSVEDLLLSVYQ gave an amyloid nucleation score of 0.188 ± 0.27.
The substance TVISV displayed an amyloid nucleation score of -1.47 ± 0.5.
As for QNWMPRHLTITLNDIRLYL, the amyloid nucleation score was 4.95 ± 0.12.
On to GVQAVSSPTSVFK, for which the amyloid nucleation score turned out to be 0.462 ± 0.85.
As for RKVMKTRVSIDHVNFAERRF, the amyloid nucleation score was found to be 1.82 ± 0.29.
Take TIIPLHIRAIYA: the amyloid nucleation score amounted to 0.956 ± 0.28.
SIYCGDTQDVVPIVSHLSNL showed an amyloid nucleation score of 0.187 ± 0.29.
The substance SWVGRAVVEYSARARASTES registered an amyloid nucleation score of -0.327 ± 0.33.
The same measure for GTREPDFGCKLDWDSY: 0.924 ± 0.25.
As to EINESRLYYNSLQAFAFMWA, the amyloid nucleation score is -0.823 ± 0.57.
The same measure for YSNFFQHRTWMIDCSFPTGL: 0.147 ± 0.37; for GPKKTLMFPSFISDSCARKG: 0.535 ± 1.2.
RIGTFGNDNSMFRSDVLSVS had an amyloid nucleation score of 0.579 ± 0.35.
Substance MWGTCSYSYLDSCRVTLFMR displayed an amyloid nucleation score of 2.06 ± 0.2.
In the case of SSDGVSMLC, the amyloid nucleation score came out at 0.33 ± 0.47.
Consider GLTINNSI, for which the amyloid nucleation score is 0.588 ± 0.38.
On to FMYAQMFPTAVQDYVK, for which the amyloid nucleation score result was “inactive”.
The result for YAKVSAIERRCWVMSVTYPD reads 0.171 ± 0.28.
Substance KGLGGFLSICNSVVVRQVWR yielded an amyloid nucleation score of 0.098 ± 0.72.
Regarding VVVSNTLECSTSRVNRKVRT, the amyloid nucleation score was -0.97 ± 0.72.
The same measure for FCTCSLKQVM: “inactive”; for KYYMSLDFWGHALH: 2.76 ± 0.15; for FCPDICTWKNWSMWMQLEDL: 0.89 ± 0.54.
Consider LAPNDGGRALSVDMRGWCDW, for which the amyloid nucleation score result is “inactive”.
For RYYYAQEWPVALFLSRPKVP, the amyloid nucleation score was 0.406 ± 0.63.
In turn, RWVYSTRNHLKIVRNNKSEL gave an amyloid nucleation score of -2.15 ± 2.4.
Take TSACFFFRCCCLRS: the amyloid nucleation score amounted to 3.76 ± 0.15.
The result for YTRSVL reads 0.2 ± 0.23.
On to TFYEMPFIFDLCYRWLTVTG, for which the amyloid nucleation score amounted to 1.34 ± 0.65.
On to IKAWWMNHGRYHCLTLRVCL, for which the amyloid nucleation score was found to be 0.713 ± 0.38.
As for LLRRLTTI, the amyloid nucleation score turned out to be 0.696 ± 0.52.
For MVHWVILYAADFPIETLNK, the amyloid nucleation score entry is “inactive”.
Consider TMKVGYQGICYTETSGMSFV, for which the amyloid nucleation score result is “inactive”.
Substance RLNVILGLTSTLNYSSVMPR registered an amyloid nucleation score of 3.67 ± 0.17.
The same measure for KYPSKSSELSGYEDSRNFVG: 0.806 ± 0.62.
IVKWLMGMHWLMLAHGV came in with an amyloid nucleation score of 0.181 ± 1.4.
The same measure for IQGNFRDLGRDKHDTEVWHP: 0.858 ± 0.45; for CRNVRQSCGYIYYCSRKHLA: 0.546 ± 0.49.
Turning to IPKVIGWFTVVTTGVVVNIS, the amyloid nucleation score is -1.59 ± 2.7.
In turn, DQYIGGFGFNYETFVTRNLV registered an amyloid nucleation score of -0.861 ± 0.49.
The substance RILYSSSSAFIGIYSLFVII gave an amyloid nucleation score of 0.292 ± 0.23.
For the substance LSFMMRGSIHWPLTTLRACS, the amyloid nucleation score turned out to be 1.05 ± 0.6.
Turning to SYNTIIGSSCN, the amyloid nucleation score is 0.701 ± 0.69.
In turn, RAWASVLGSFGIGVSCCGA returned an amyloid nucleation score of -0.85 ± 1.2.
For RWMSYHIVPRRGSYCVTTLT, the amyloid nucleation score was found to be 0.492 ± 0.85.
Substance NEFTFSYKYGRHSGRSLKRR gave an amyloid nucleation score of 2.32 ± 0.28.
VSITRVGTFIRYLFCIARCW had an amyloid nucleation score of -0.866 ± 0.9.
The result for TTPEAFNSLFAIRGGLLPQR reads -0.415 ± 0.47.
For ISWSASLDIDINCQCRGLWG, the amyloid nucleation score came to 3.35 ± 0.1.
LHLPHLRIRTNYSGLILSVM gave an amyloid nucleation score of -0.513 ± 0.56.
Take SEFHFMRT: the amyloid nucleation score is -0.482 ± 1.7.
The result for FFRIEATSVSLSPAYRLEDR reads 2.59 ± 0.28.
The same measure for TIWLDCLMDKTYVFDCLFSF: 0.587 ± 1.1.
In the case of VFRDVHD, the amyloid nucleation score came to 0.417 ± 0.42.
Regarding ERSSAPECNFKYISYTGKS, the amyloid nucleation score was -0.881 ± 0.48.
Take YFQQEVQFEWGCVWREWCDC: the amyloid nucleation score was 0.197 ± 0.52.
RWPVFNSCLSSSPRRAEYRY displayed an amyloid nucleation score of 0.616 ± 0.59.
The result for NSSHLLVMCDICYNFKVRTL reads -1.69 ± 1.5; that for RDIWMATYRWVRVYSLMWIG, 1.01 ± 0.48; that for HLPTKLPSRIRYRCYDFHVI, -0.546 ± 0.97.
The same measure for IFTTSNQSEGRGVPAGNPNL: “inactive”; for KVHTGTSTRLKLYMHSTLRT: 0.454 ± 0.25.
The substance STLLMTSDSSALMLLYTSIL had an amyloid nucleation score of -0.336 ± 0.46.
The substance NLNFAAPKGGV returned an amyloid nucleation score of -0.735 ± 2.4.
In the case of GNSYLILNGRSYSRIFARSS, the amyloid nucleation score entry was “inactive”.
Substance PLVSTHALSAGILYCFKFYR had an amyloid nucleation score of 5.57 ± 0.097.
On to SLPQKGIHWRQYL, for which the amyloid nucleation score was 0.368 ± 0.61.
As for LPIVGFSCFEFIMIERMRLV, the amyloid nucleation score result is “inactive”.
VEAESFARCDRHVHRQTIGG showed an amyloid nucleation score of 0.369 ± 0.54.
The substance SCQSALLRILGSRVSFQARA showed an amyloid nucleation score of -0.192 ± 0.49.
The result for HSIERTWPVRRPKCESKLKF reads -0.91 ± 1.3; that for VSCIV, 0.198 ± 0.58; that for ISTDPWAAHYNRTHIQ, 1.98 ± 0.15.
In the case of SQCLSKLLSIDISRCWAGQM, the amyloid nucleation score stood at 2.59 ± 0.46.
Consider LYTHNSELNIKGSKVVHIEW, for which the amyloid nucleation score stood at 0.489 ± 0.4.
The result for FHRVDGVDCRTMYEGV reads -0.937 ± 0.72; that for SLSTVNRKAV, -0.637 ± 0.57.
For the substance GSKKYQIMSVSELKVQCCGS, the amyloid nucleation score was found to be 0.445 ± 0.34.
Substance APEGLPMDAPGLGWVNRVII returned an amyloid nucleation score of -0.295 ± 0.8.
SPSSVYVINLNSNLRGNGFA yielded an amyloid nucleation score of 7.08 ± 0.078.
As to VFRTISYRV, the amyloid nucleation score was found to be 0.039 ± 0.69.
The same measure for SRRSYSYFGIIICVNCSDTS: 8.583 ± 0.057; for TGSQLWHIIFRC: 0.214 ± 0.24.
The result for PSYHSRPRSPYGNIEYKEHR reads 0.46 ± 0.36; that for WDRASYIEYRSFIEWRRLPK, -0.006 ± 0.55.
FSRCCTFSSDYFNARCIERN showed an amyloid nucleation score of 1.22 ± 0.23.
For HTTFKGKSEAATRIIATQAR, the amyloid nucleation score was -0.011 ± 0.41.
The same measure for YLCPFIYMAHSGSSDVCLIV: 3.38 ± 0.11; for EWVVWVDCRGRYADNVSGGA: -0.558 ± 0.53; for DYYVVLDMQQVFEGGCRFFR: 0.498 ± 0.46.
The result for VFFKKAIIFRSKV reads 0.318 ± 0.33.
FLWSIICSYSQLY: the amyloid nucleation score is -0.201 ± 0.35.
The result for ATQNLKY reads 0.824 ± 0.79; that for HQLGQYHTACHAPSARCTPL, -0.221 ± 0.52; that for FNYVILTFWVKYTFSAHCV, -0.271 ± 0.64.
Regarding GLWLKLLVDLKHMKIEHPWH, the amyloid nucleation score was 0.933 ± 0.72.
Regarding RLASRCLLALGMEWLIPMER, the amyloid nucleation score was 2.6 ± 0.11.
In turn, RKFSNLVGRYALFICLKSLT gave an amyloid nucleation score of -0.28 ± 0.3.
The substance YHVWTFWRRLETRINFQM came in with an amyloid nucleation score of 1.13 ± 0.98.
The result for TMLWIVIARNFECEMGFNM reads 3.1 ± 0.08.
For the substance IKYLSYDVNPPLWFVYNFSF, the amyloid nucleation score turned out to be 6.29 ± 0.084.
The result for MNMVCS reads 1.15 ± 0.58.
The result for LVFSRFLGSVLVNEPSEATR reads 0.203 ± 1.5.
Regarding MAFYSTSLSFSEGGIRCSIY, the amyloid nucleation score was determined as 5.14 ± 0.08.
The substance LTSCLLPFDPLSNDNYKGVW came in with an amyloid nucleation score of 1.78 ± 0.65.
LQKVFLAVDSYW: the amyloid nucleation score is -0.347 ± 0.92.
VDKYIIFIEIYIADSCDTLG yielded an amyloid nucleation score of 0.374 ± 0.54.
As to SRLVRSSLHMGAKTRVIQL, the amyloid nucleation score was determined as 0.881 ± 0.26.
The same measure for LKHPDIYRKVERKVRVNMFF: -0.792 ± 0.31.
The result for LISYRYFFCHRECVLVIGSN reads 0.327 ± 0.6; that for TLIGSDLVFGSRDPGWGCTI, -0.406 ± 0.45; that for NYLLWVAHPIVSY, -0.502 ± 0.34.
With RGDGTRNRRCAIFSN, the amyloid nucleation score was -0.064 ± 0.99.
